In patent CN117836322A (PASTEUR INSTITUT, dated 2024):
Where “and” joins values, the source holds several entries; their conditions need not be identical. Equal values may be shown once.

B1: Cv2.1169 IgG1 (antibody, V domains shown)
VH: QVQLVQSGPEVKKPGTSVKVSCKASGFTFTTSAVQWVRQARGQRLEWIGWIVVGSGNTNYAQKFQERVTITRDMSTTTAYMELSSLRSEDTAVYYCAAPYCSGGTCLDGFDIWGQGTMVTVSS
VL: not shown
B2: Cv2.3194 IgG1 (antibody, V domains shown)
VH: EVQLVESGGGLIQPGGSLRLSCAASGITVTSNYMSWVRQAPGKGLEWVSVIYPGGSTFYADSVKGRFTISRDNSKNTLYLQMNSLRAEDTAVYYCARDLVVYGMDVWGQGTTVTVSS
VL: EIVLTQSPGTLSLSPGERATLSCRASQSVSSSYLAWYQQKPGQAPRLLIYGASSRATGIPGRFSGSGSGTDFTLTISRLEPEDFAIYYCQQGVTFGGGTKVEIKR

Columns and labels:
[1] = target: SARS-CoV-2 Omicron BA.1 spike on virus (SARS-CoV-2); assay: cell-based or functional assay
[2] = target: SARS-CoV-2 Delta (δ, B.1.617.2) spike on virus (SARS-CoV-2); assay: cell-based or functional assay

| Binder | IC50 (S-融合测定) [1] | IC50 (中和) [1] [µg/mL] | IC50 (S-融合测定) [2] [µg/mL] |
| --- | --- | --- | --- |
| B1 | 0.253 µg/mL and 0.212 µg/mL | ~0.25 | 0.00446 |
| B2 | 0.0242 µg/mL | – | – |
